According to paper PMC7954794, “Protein context shapes the specificity of SH3 domain-mediated interactions in vivo” (Nature Communications, 2021):

B1: Abp1 WT (protein, UniProt P15891 2-592, looked up)
Actin-binding protein: ALEPIDYTTHSREIDAEYLKIVRGSDPDTTWLIISPNAKKEYEPESTGSSFHDFLQLFDETKVQYGLARVSPPGSDVEKIIIIGWCPDSAPLKTRASFAANFAAVANNLFKGYHVQVTARDEDDLDENELLMKISNAAGARYSIQTSSKQQGKASTPPVKKSFTPSKSPAPVSKKEPVKTPSPAPAAKISSRVNDNNDDDDWNEPELKERDFDQAPLKPNQSSYKPIGKIDLQKVIAEEKAKEDPRLVQKPTAAGSKIDPSSDIANLKNESKLKRDSEFNSFLGTTKPPSMTESSLKNDDDKVIKGFRNEKSPAQLWAERKAKQNSGNAETKAEAPKPEVPEDEPEGEPDVKDLKSKFEGLAASEKEEEEMENKFAPPPKKSEPTIISPKPFSKPQEPVKAEEAEQPKTDYKKIGNPLPGMHIEADNEEEPEENDDDWDDDEDEAAQPPLPSRNVASGAPVQKEEPEQEEIAPSLPSRNSIPAPKQEEAPEQAPEEEIEEEAEEAAPQLPSRSSAAPPPPPRRATPEKKPKENPWATAEYDYDAAEDNELTFVENDKIINIEFVDDDWWLGELEKDGSKGLFPSNYVSLGN
B2: Sho1 WT (protein, UniProt P40073 1-367, looked up)
High osmolarity signaling …: MSISSKIRPTPRKPSRMATDHSFKMKKFYADPFAISSISLAIVSWVIAIGGSISSASTNESFPRFTWWGIVYQFLIICSLMLFYCFDLVDHYRIFITTSIAVAFVYNTNSATNLVYADGPKKAAASAGVILLSIINLIWILYYGGDNASPTNRWIDSFSIKGIRPSPLENSLHRARRRGNRNTTPYQNNVYNDAIRDSGYATQFDGYPQQQPSHTNYVSSTALAGFENTQPNTSEAVNLHLNTLQQRINSASNAKETNDNSNNQTNTNIGNTFDTDFSNGNTETTMGDTLGLYSDIGDDNFIYKAKALYPYDADDDDAYEISFEQNEILQVSDIEGRWWKARRANGETGIIPSNYVQLIDGPEEMHR
B3: Bem1 WT (protein, UniProt P29366 1-551, looked up)
Bud emergence protein 1: MLKNFKLSKRDSNGSKGRITSADISTPSHDNGSVIKHIKTVPVRYLSSSSTPVKSQRDSSPKNRHNSKDITSPEKVIKAKYSYQAQTSKELSFMEGEFFYVSGDEKDWYKASNPSTGKEGVVPKTYFEVFDRTKPSSVNGSNSSSRKVTNDSLNMGSLYAIVLYDFKAEKADELTTYVGENLFICAHHNCEWFIAKPIGRLGGPGLVPVGFVSIIDIATGYATGNDVIEDIKSVNLPTVQEWKSNIARYKASNISLGSVEQQQQQSITKPQNKSAKLVDGELLVKASVESFGLEDEKYWFLVCCELSNGKTRQLKRYYQDFYDLQVQLLDAFPAEAGKLRDAGGQWSKRIMPYIPGPVPYVTNSITKKRKEDLNIYVADLVNLPDYISRSEMVHSLFVVLNNGFDREFERDENQNNIKTLQENDTATFATASQTSNFASTNQDNTLTGEDLKLNKKLSDLSLSGSKQAPAQSTSGLKTTKIKFYYKDDIFALMLKGDTTYKELRSKIAPRIDTDNFKLQTKLFDGSGEEIKTDSQVSNIIQAKLKISVHDI
B4: Myo5 WT (protein, UniProt Q04439 1-1219, looked up)
Myosin-5: MAILKRGARKKVHQEPAKRSANIKKATFDSSKKKEVGVSDLTLLSKISDEAINENLKKRFLNATIYTYIGHVLISVNPFRDLGIYTDAVMNEYKGKNRLEVPPHVFAIAESMYYNMKSYNENQCVIISGESGAGKTEAAKRIMQYIAAASSTHTESIGKIKDMVLATNPLLESFGCAKTLRNNNSSRHGKYLEIKFNNQFEPCAGNITNYLLEKQRVVSQIKNERNFHIFYQFTKGASDAYRQTFGVQKPEQYVYTAAAGCISAETIDDLQDYQETLKAMRVIGLGQEEQDQIFRMLAAILWIGNVSFIENEEGNAQVRDTSVTDFVAYLLQIDSQLLIKSLVERIMETNHGMKRGSVYHVPLNIVQADAVRDALAKAIYNNLFDWIVSRVNKSLQAFPGAEKSIGILDIYGFEIFEHNSFEQICINYVNEKLQQIFIQLTLKSEQETYEREKIQWTPIKYFDNKVVCDLIEARRPPGIFAAMNDSVATAHADSNAADQAFAQRLNLFTTNPHFDLRSNKFVIKHYAGDVTYDIDGITDKNKDQLQKDLVELIGTTTNTFLATIFPDTVDRESKRRPPTAGDKIIKSANDLVETLSKAQPSYIRTIKPNETKSPNDYDDRQVLHQIKYLGLQENVRIRRAGFAYRQVFEKFVERFYLLSPHCSYAGDYTWQGDTLDAVKYILQDSSIPQQEYQLGVTSVFIKTPETLFALEHMRDRYWHNMAARIQRAWRRFLQRRIDAATKIQRTIRERKEGNKYEKLRDYGTKVLGGRKERRSMSLLGYRAFMGDYLSCNESKSKGAYIKRQVSIKEKVIFSIHGEALHTKFGRSAQRLKKTFLLTPTTLYIVGQTLVQNAMTYTQDYKIDVRNIQAVSLTNLQDDWVAIKLASSGQPDPLINTYFKTELITHLKRLNDKIQIKIGSAIEYQKKPGKLHSVKCQINESAPKYGDIYKSSTISVRRGNPPNSQVHKKPRKKSSISSGYHASSSQATRRPVSIAAAQHVPTAPASRHSKKPAPPPPGMQNKAATRRSVPNPASTLTASQSNARPSPPTAATRATPAATPAAAAMGSGRQANIPPPPPPPPPSSKPKEPMFEAAYDFPGSGSPSELPLKKGDVIYITREEPSGWSLGKLLDGSKEGWVPTAYMKPHSGNNNIPTPPQNRDVPKPVLNSVQHDNTSANVIPAAAQASLGDGLANALAARANKMRLESDDEEANEDEEEDDW
B5: Boi2 WT (protein, UniProt P39969 1-1040, looked up)
BEM1-interacting protein 2: MSNDREVPTLSQLNTTVSRDKDVSDTLSPDFDSKGSATGRDGGNFPMYIAINEYFKRMEDELDMKPGDKIKVITDDEEYKDGWYFGRNLRTNEEGLYPVVFTQKITVEKAPTLMRAKSTKRIYSPLTNEDPLLSSTFISENDSNSELPTPQPIETAASISRTANGKIERNLSLKNTMSDIDNALLEFKDDSIGPPDRFINSGRDEEHSITHETILSATDGLDVVESNSKPTTSSSTGFLNGDLENQATLINGIDTTKLNPVEAEFWSPEEITAYFIMEGYDVQSASRFQKHKISGKILLELELVHLKELDINSFGTRFEIFKEIEKIKEAIRTNGRSLNRASKTNNANIYNQLMPPANVDQRASYRGHVRKTSQSLEDLPSQQNFIPTPRNTRNSSASKHRPKSLVFDSQEANANIAPDVQIPQVVEEMAGNENLFVSPRRAPKPPSYPSPAQPPKSPLLNNTRTSPSPAQLYSWQSPTLSFSGPKRTSYIDQYSSSDSNFNSRSALPKNNQGGGKALSPIPSPTRNSVRNEDSEGKLTSSSKRNSVPYYGYAPESSSDRKSSCSSHEEEQFQETMNTFERPTSSIYADGSTIASISNDKLAHEKEGKKKPTRHSSSLSSKSKSDSRRNSSLKRSSSASRTSSFKKSSFMLSPFRQQFTDNAARSSSPEENPITSMPSEKNSSPIVDKKSSKKSRSKRRSVSAKEAEIFTETVKDDKNKRSASEAIKGETLKGKSLRQMTARPVAKKKQTSAFIEGLRSISVKEAMKDADFSGWMSKKGSGAMSTWKTRFFTLHGTRLSYFSSTTDTRERGLIDITAHRVVPAKEDDKLVSLYAASTGKGRYCFKLLPPQPGSKKGLTFTQPRTHYFAVDNKEEMRGWMAALIKTTIDIDTSVPIISSYTTPTVSLSKAQEMLAEAREETKLREQQMLENEEDEDQFLWDQQQLQQQQHDNNQGQADRTISASTQRTSDEDNTISTPNLSSANNTTIGSNGFSSPFLLASGLLSPGVARNSSMRGTEKKGKFSTEEDYFGDNSKHKTDKI
B6: Sla1 WT (protein, UniProt P32790 1-1244, looked up)
Actin cytoskeleton-regulatory …: MTVFLGIYRAVYAYEPQTPEELAIQEDDLLYLLQKSDIDDWWTVKKRVIGSDSEEPVGLVPSTYIEEAPVLKKVRAIYDYEQVQNADEELTFHENDVFDVFDDKDADWLLVKSTVSNEFGFIPGNYVEPENGSTSKQEQAPAAAEAPAATPAAAPASAAVLPTNFLPPPQHNDRARMMQSKEDQAPDEDEEGPPPAMPARPTATTETTDATAAAVRSRTRLSYSDNDNDDEEDDYYYNSNSNNVGNHEYNTEYHSWNVTEIEGRKKKKAKLSIGNNKINFIPQKGTPHEWSIDKLVSYDNEKKHMFLEFVDPYRSLELHTGNTTTCEEIMNIIGEYKGASRDPGLREVEMASKSKKRGIVQYDFMAESQDELTIKSGDKVYILDDKKSKDWWMCQLVDSGKSGLVPAQFIEPVRDKKHTESTASGIIKSIKKNFTKSPSRSRSRSRSKSNANASWKDDELQNDVVGSAAGKRSRKSSLSSHKKNSSATKDFPNPKKSRLWVDRSGTFKVDAEFIGCAKGKIHLHKANGVKIAVAADKLSNEDLAYVEKITGFSLEKFKANDGSSSRGTDSRDSERERRRRLKEQEEKERDRRLKERELYELKKARELLDEERSRLQEKELPPIKPPRPTSTTSVPNTTSVPPAESSNNNNSSNKYDWFEFFLNCGVDVSNCQRYTINFDREQLTEDMMPDINNSMLRTLGLREGDIVRVMKHLDKKFGRENIASIPTNATGNMFSQPDGSLNVATSPETSLPQQLLPQTTSPAQTAPSTSAETDDAWTVKPASKSESNLLSKKSEFTGSMQDLLDLQPLEPKKAAASTPEPNLKDLEPVKTGGTTVPAAPVSSAPVSSAPAPLDPFKTGGNNILPLSTGFVMMPMITGGDMLPMQRTGGFVVPQTTFGMQSQVTGGILPVQKTGNGLIPISNTGGAMMPQTTFGAAATVLPLQKTGGGLIPIATTGGAQFPQTSFNVQGQQQLPTGSILPVQKTANGLISANTGVSMPTVQRTGGTMIPQTSFGVSQQLTGGAMMTQPQNTGSAMMPQTSFNAVPQITGGAMMPQTSFNALPQVTGGAMMPLQRTGGALNTFNTGGAMIPQTSFSSQAQNTGGFRPQSQFGLTLQKTGGIAPLNQNQFTGGAMNTLSTGGVLQQQQPQTMNTFNTGGVMQELQMMTTFNTGGAMQQPQMMNTFNTDGIMQQPQMMNTFNTGGAMQQPQQQALQNQPTGFGFGNGPQQSRQANIFNATASNPFGF

The molecules below were run on SH3-deleted bait proteins (1xFLAG) (assay: Western blot expression level of SH3-deleted baits (Fig. S1F-G)). Conditions: Western blot Flag signal, 1xFLAG-tagged WT or SH3-deleted bait; sheet FigS1F-G.
Format: cell-based, Saccharomyces cerevisiae
Description: Precultures of yeast cells expressing baits fused with the DHFR F[1,2]-FLAG were grown overnight at 30 °C with agitation in synthetic complete medium. The next day, cells were expanded in synthetic complete medium to reach their exponential phase (OD600 of around 1.0), pelleted, and frozen at −80 °C. The equivalent of fifty OD600 of cells was resuspended in ice-cold yeast lysis buffer (10 mM Tris-HCl pH 7.4, 150 mM NaCl, 0.5 mM EDTA (Millipore Sigma), 1% Triton X-100 (Millipore Sigma), and one cOmplete Mini Protease Inhibitor Cocktail (Millipore Sigma) per 10 mL) with […] glass beads (Millipore Sigma) and disrupted at 4 °C by 10 cycles of 2 min vortexing and 2 min cooldown. The equivalent of […] of lysed cells was used for the immunoprecipitation of the bait proteins using FLAG-M2 agarose beads (Millipore Sigma). The beads were incubated with the cell lysates for 120 min at 4 °C with a slow rotation, followed by three washes with the yeast lysis buffer.
Protein extracts and affinity-purified baits from yeast and human lysed cells were migrated on 10% polyacrylamide gels. The separated proteins were then transferred to nitrocellulose membranes. Validation of correct protein loading was done with ponceau staining of the membranes. Before the primary antibody incubations, membranes were blocked in 5% milk. Protein signals were detected on an Amersham Imager 600RGB (GE Healthcare) following the incubation of the membranes with the appropriate HRP-conjugated secondary antibodies and the Clarity Western ECL Substrate (Bio-Rad). The antibodies used in this study are M2-HRP (A8592, Sigma, 1/50,000), rabbit anti-FLAG (F7425, Sigma, 1/1000), PAK (SC-881, Santa Cruz, 1/200), p130cas/BCAR1 (SC-860, Santa Cruz, 1/200), actin (Cell Signaling Technology, 1/2000), anti-mouse HRP (Cell Signaling Technology, 1/10,000) and anti-rabbit HRP (Cell Signaling Technology, 1/10,000). The quantification of the WB signals was performed with the Amersham Imager 600 analysis software (GE Healthcare).
Work on B1 yielded a Flag of 9263. In the case of B2, the Flag is reported as 42239. Molecule B3 has a Flag of 104455. Work on B4 yielded a Flag of 93590. B5 showed a Flag of 12024. B6 was tested, and the Flag was 58812.
